{"source": "a protein production outcome set (Wang et al. 2014)", "assay": "label from the status in PepcDB records"}
{"sequence": "MGRKQLNHIKCRENCSLVAKAGFRHRRVIIQGIQSAMVQDSDEILFVEEEDPVAGSLPSDVSPWKVLVADDDPEVFTVTRLVLSGFVFAGRGVSLLYAGSAAEATEILRQQSDIAVALLDVVMETEDAGLKLVKVIRDDLGNSHLRIVLRTGQPGQAPEHDVVMRYDINDYRSKTELTDTKLITTLVSSLRSYQQIEALERSRAELREARDTLEIRVAERTRDLRESEARLRSILDASVFPILVLSEEGDRVRFLNDHAGEALGWALLENTTSTLPDLWENPVDGARLLARTVQRGRVLDCEFRLRGAGGEPFWALVSTIAMSYDGQPAVLLSFNDITVHKQREEAWQRLALTDPLTGLGNRRLLFDRGILEVARARRGCWPLSGLMIDLDHFKRINDTQGHAAGDAILRTLADTLRESLREIDVIARVGGEEFAILLPDTSLTAAHEVGERLRLSCQIPQPVGGPVTISVGISTLHPEDRGLGDMLSRADDALYRAKRNGRDRVEIADDSEDNQDVSP", "values": [{"measurement": "protein production", "value": "failed"}]}
{"sequence": "MGRKRGNAIMEKTKIDIISGFLGAGKTTLIKKLLKDAFQGEQVVLIENEFGEIGIDGGFLKEAGIQIREMNSGCICCSLVGDFGASLKEVISKYHPDRILIEPSGVGKLSDVIKAVQGVEEETGLVLNSYTTVVDAKKCKMYMRNFGEFFNNQVEYAGAIIMSRTDIVDEAKAQASLELLREINSKAAIITTPIEKLEGKKLLEVMEHPVSLADELMEEEEVCPECGHVHEHGEHHHHDHDEECGCGHDHDHEEHEHHHHDHDEECGCGHDHAHEEHEHHHHDHDHECGCGHDHHDHHHHHADEVFTSWGRETIKKYTKENLEKMLEALSASDEYGIILRAKGMLPAEDGTWIYFDMVPEETEIREGAPEYTGRLCVIGSKLNEDKLAELFGL", "values": [{"measurement": "protein production", "value": "failed"}]}
{"sequence": "MGRKSNRAKEKKQRRLEERAAMDAVCAKVDAANKLEDPLSAMPVFKKYDRNGLNLQIECKRVTALSPDTVEWAYELTRANMQTLYEQSEWGWKEREKREEMKDERAWYLLARDADSTPLAFSHFRFDVECGDEVLYCYEVQLESKVRRKGLGKFLIQILQLIANSTQMKKVMLTVFKHNHGAYQFFREALQFEIDETSPSMSGCCGEDCSYEILSRRTKYGEVSGHAHGGHCGGCCH", "values": [{"measurement": "protein production", "value": "not failed"}]}
{"sequence": "MGRNFLAILYFCFLFLGFLSCSNVKSMSLMAIGNYEYVRGNYQNAISNYYNLVEDEKYSAWGYYNLGVVYYSLGEYESSLRIFSYAKKTNDIFLNFNVNYNEGVIYYNQGLYHKAEVAFKEALKINPGSYNAKYNLELAIIKKRAVRDSLNSLSVEKGKNFVESNENFLRYIENLERVVWLRKIDENLAVPKEDW", "values": [{"measurement": "protein production", "value": "failed"}]}
{"sequence": "MGRTPETHVIDFRAAEQLLAARDPRGAVKLLDPVIAAHPENTAARLLRARAFFAAAQLRPAELEFTIVLEREPDNAFAHFALARTYERQLRPDQAKRHFRLAAALDPNPQYLKAARLEHHHHHH", "values": [{"measurement": "protein production", "value": "not failed"}]}
{"sequence": "MGRVRLQANQMEWRPGIYVGEGTTIASSAQLEPPLWIGQHCYIGEEVQLKAGTVIGDESRIEAGACLDRAVVWNRVQIGQRSHLEGCVLADGVRLERHVQIHEGAVIGSGCRLQEEAQVQAEVRIWPRKQIEAGAILEHHHHHH", "values": [{"measurement": "protein production", "value": "failed"}]}
{"sequence": "MGSASIGYQFGISARFYGNFNLSSDITVSSLPCKLDVSIKSLFSAPSSTHKEYSNRARVCSLPNTDGYCDEKFETPILDSIETPLQLKNLSVKELKLLADEIRTELHSVLWKKTQKSMNPSFAAIELTLALHYVFRAPVDNILWDAVEQTYAHKVLTRRWSAIPSRQNSGISGVTSRLESEYDSFGTGHGCNSISAGLGLAVARDMKGKRDRVVAVIDNVTITAGQAYEAMSNAGYLDSNMIVILNDSRHSLHPNMEEGSKASISALSSIMSKIQSSKVFRKFRELAKAMTKRIGKGMYEWAAKVDEYARGMVGPTGSTLFEELGLYYIGPVDGHNIEDLVCVLREVSSLDSMGPVLVHVITEGNRDAETVKNIMVKDRRTYSDCFVEALVMEAEKDRDIVVVHAGMEMDPSLLTFQERFPDRFFNVGMAEQHAVTFSAGLSSGGLKPFCIIPSAFLQRAYDQVVHDVDRQRKAVRFVITSAGLVGSDGPVQCGAFDIAFMSSLPNMIAMAPADEDELVNMVATAAYVTDRPVCFRFPRGSIVNMNYLVPTGLPIEIGRGRVLVEGQDVALLGYGAMVQNCLHAHSLLSKLGLNVTVADARFCKPLDIKLVRDLCQNHKFLITVEEGCVGGFGSHVAQFIALDGQLDGNIKWRPIVLPDGYIEEASPREQLALAGLTGHHIAATALSLLGRTREALLLMS", "values": [{"measurement": "protein production", "value": "failed"}]}
{"sequence": "MGSGPELTQTSLETLQEALQTERITYVDTLNEDIGAVVESADQLAFDYVVGDVSDYGVSSNDHVHLDLVHEGSTIHCVLFGYKRSAIDATIEDGMQVAVKGSLSYYEDGGNVSVIVEDIVEVGEGTYQRIYEQNRQLLDSDGLLDPEHKQALPDFPERIGIATSATSDARMDAITSIHERYPDVDIVIQNTSVQGDDAMMSIMGAISELDDDPRVDVIVLTRGGGSDKHLRVFNETPLCRVIHKTETPVVVGVGHENDRTLADEVADRRVMTPTEAGNIVPERTTLEAELETLEERLNTAYTETAETTLETMDDRLTRAYRRTVESDLSAFEAELDRTYDTHVRDELTDLANRLEQARTQYDQQREREQEVAAHRRQRRRLLLILVALGLLVVALLLYILLPL", "values": [{"measurement": "protein production", "value": "failed"}]}
{"sequence": "MGSLQPDAGNASWNGTEAPGGGARATPYSLQVTLTLVCLAGLLMLLTVFGNVLVIIAVFTSRALKAPQNLFLVSLASADILVATLVIPFSLANEVMGYWYFGKAWCEIYLALDVLFCTSSIVHLCAISLDRYWSITQAIEYNLKRTPRRIKAIIITVWVISAVISFPPLISIEKKGGGGGPQPAEPRCEINDQKWYVISSCIGSFFAPCLIMILVYVRIYQIAKRRTRVPPSRRGPDAVAAPPGGTERRPNGLGPERSAGPGGAEAEPLPTQLNGAPGEPAPAGPRDTDALDLEESSSSDHAERPPGPRRPERGPRGKGKARASQVKPGDSLPRRGPGATGIGTPAAGPGEERVGAAKASRWRGRQNREKRFTFVLAVVIGVFVVCWFPFFFTYTLTAVGCSVPRTLFKFFFWFGYCNSSLNPVIYTIFNHDFRRAFKKILCRGDRKRIV", "values": [{"measurement": "protein production", "value": "failed"}]}
{"sequence": "MGSPNINGNTAKLVNAILDGAAEKRAEKVIYNLASLNIKGCDACFRCQKSGCCAIDDDMQELYHEIQAADTIVLGSPVYMWQMTAQTKLLIDRLTAFLKPDFSSRLDNKKLILVFSQGSPDRDAFKPYFEYTAGLLYYLGFDVLETVIAAGTDNLEVSFRPKLLENARELGRLVSTSPLTGPEFKKDEPSLTPLL", "values": [{"measurement": "protein production", "value": "failed"}]}
{"sequence": "MGSSHHHHHHENLYFQGSNIAFYVVSDVHGYIFPTDFTSRNQYQPMGLLLANHVIEQDRRQYDQSFKIDNGDFLQGSPFCNYLIAHSGSSQPLVDFYNRMAFDFGTLGNHEFNYGLPYLKDTLRRLNYPVLCANIYENDSTLTDNGVKYFQVGDQTVGVIGLTTQFIPHWEQPEHIQSLTFHSAFEILQQYLPEMKRHADIIVVCYHGGFEKDLESGTPTEVLTGENEGYAMLEAFSKDIDIFITGHQHRQIAERFKQTAVIQPGTRGTTVGRVVLSTDEYENLSVESCELLPVIDDSTFTIDEDDQHLRKQLEDWLDYEITTLPYDMTINHAFEARVAPHPFTNFMNYALLEKSDADVACTALFDSASGFKQVVTMRDVINNYPFPNTFKVLAVSGAKLKEAIERSAEYFDVKNDEVSVSADFLEPKPQHFNYDIYGGVSYTIHVGRPKGQRVSNMMIQGHAVDLKQTYTICVNNYRAVGGGQYDMYIDAPVVKDIQVEGAQLLIDFLSNNNLMRIPQVVDFKVEK", "values": [{"measurement": "protein production", "value": "not failed"}]}
{"sequence": "MGSSHHHHHHSSGLVPRGSHMLLREVTREERKNFYTNEWKVKDIPDFIVKTLELREFGFDHSGEGPSDRKNQYTDIRDLEDYIRATAPYAVYSSVALYEKPQEMEGWLGTELVFDIDAKDLPLRRCEHEPGTVCPICLNDAKEIVRDTVIILREELGFNDIHIIYSGRGYHIRVLDEWALKLDSKSRERILSFVSASEIEDVEEFRKLLLNKRGWFVLNHGYPRAFRLRFGYFILRIKLPHLINAGIRKSIAKSILKSKEEIYEEFVRKAILAAFPQGVGIESLAKLFALSTRFSKSYFDGRVTVDLKRILRLPSTLHSKVGLIAKYVGTNERDVMRFNPFKHAVPKFRKEEVKVEYKKFLESLGT", "values": [{"measurement": "protein production", "value": "not failed"}]}
{"sequence": "MGSSHHHHHHSSGLVPRGSTETSQQLQLRVQGKEKHQTLEVSLSRDSPLKTLMSHYEEAMGLSGRKLSFFFDGTKLSGRELPADLGMESGDLIEVWG", "values": [{"measurement": "protein production", "value": "not failed"}]}
{"sequence": "MGSSHHHHHHSSGRENLYFQGGAGTSAAMRQATSPKTILEYIINFFTCGGIRRRNETQYQELIETMAETLKSTMPDRGAPLPENIILDDMDGCRVEFNLPGENNEAGQVIVRVSKGDHSETREIPLASFEKICRALLFRCEFSLPQDSVILTAQGGMNLKGAVLTGANLTS", "values": [{"measurement": "protein production", "value": "not failed"}]}
{"sequence": "MGSSHHHHHHSSGRENLYFQGMAGGKSMNVESYEKILRDRQRELYRRLHKIEADFEEPRNPDDEDRASERSNDEVLDELGQVGQDELRAIDAALARIASGTFGTCVKCGKRISEDRLKAVPYTPFCQECAAAL", "values": [{"measurement": "protein production", "value": "not failed"}]}
{"sequence": "MGSSSRQGWRSVFKDVTQKWDVMTVEEQEKELSLLEEWTERVLEEWSDMHEACMTLRERQQQSSVLEKYPPYVSKGTALYDLEMFPEAAMQFDRELKMQPHMHHPLLHLYAIFANLYGGQRERCKEHCVYVLTTSVDRLVRYFTYMALGTLYMQEGEVEEALTSYEHASKLTFHPDVMYNLGMAYFLQHQYALAIPCFMEVIKDGEEDVDALYFLGCALCESGYVEEGCAKWLEAIQLCPPEKVLLTIGAKLEWYGFHQAAVHCFEQLLQSRQLRHLAKHGIAWNLALQDEREKAIHMLKELIAVPQIREDVRLSIEFLAHCWNDGNLRQLAASIERG", "values": [{"measurement": "protein production", "value": "failed"}]}
{"sequence": "MGSTTGSMLTAISDTHGTDNHRLTGRTLDAVREADHVLHAGDFMTEQVLDAIDAESDELTGVVGNNDRPAVRARLSDVATVSWEELTIVVVHGHEHTETALGMLARQENADIVVVGHSHKPVLTDFGGWTLVNPGSYADPRRYQPAHAELDVMAGDVRVRLRSPDGTPISTTIVERLEHHHHHH", "values": [{"measurement": "protein production", "value": "failed"}]}
{"sequence": "MGSVAARDYVGIATKYAEAAVADKGRKRHGRWIRLAAKRFLDDLKRARRRGTPFFFDEWHANDACDFIEKLPHVEGKWETPTIVMHPSHVFFVVQLFGFRRRDAIKVEGWGDDDTFHPRRFTSALFAVARKNAKSTLASAILLYCLCCEPEEGAQVISAATTFDQASIIFRASKRMVEKTPDLAEAFGLATWAKSISRFETGSSYKAVHAKASTQDGLNPSHTGLDEIHAHKTADLLNVLQSAAGARANPLWLFTTTEGYTNAGPWAEIRGFVFALLRGVLGTQADHFLALFYALDNEDKSAKITQDDEFDESKWIKANPLLDVNPHLKAAIRKEAVEAKQMPSKLAEFRIKRCNRPASTASGWVDLTKWAKCGGAVDLDWLAGYPCWGGLDLASTTDIAAFRLLWLVEGVWYTHGWRWVPSEAVKQRTERATVPYAGWVEAGYLLQTEGDVTDYSVIERDILAAVQRFDPQQIAYDAWNAADLVNRLVAASVPMVQFVQGTKSYHPAMQALELAYVGGKLVHGGDPVLAWCASNLVARRDVNLSMAPDRKRSADKIDDMAALLMAMGLAVASDDAEDLSDFFNNAVIGLEHHHHHH", "values": [{"measurement": "protein production", "value": "not failed"}]}
{"sequence": "MGSVVHAEITEIKPFELRVNFGNSFRGRIHITEVLVNDASTSDEPFAKFRVGQSISARVVAKPCHTDIKKTQLWELSVKP", "values": [{"measurement": "protein production", "value": "not failed"}]}
{"sequence": "MGTHIKNQYISPPNTVYDCSIVKLPKIENRSGNITPIHSWVNIPFQIKRIFYSYDIPGGESRGAHAHKKCHQFLIAASGSFEVVLDDGISKRTVLLNRPFYGLHIPPGIWASEQGFSSGSVCLVLASHVYEEDDYLRDYQGFLNYKSQGIFEMFINVNGGGVSPKIFYLPFLFTKSKEEVA", "values": [{"measurement": "protein production", "value": "failed"}]}
{"sequence": "MGTIESYLTNSYNYIIFNFKKLCIGGLMSAIVGAMSGVTTAFIDLFMERANYDIMHIIMSFLIYFGIIFIIGLIVSAIIGGYNVRIMKTTVEGLNVAPDWNNITDLLYRGILYIVGLVLLNIIFYFIPAILFVFGIFSLYISKIIGAFLIIISILIFIISVISLWLYSKLAEVNYSVKGFYGFFEFKEIFKMIGIRYIILVIIIAIINFIISLIVVLPLNIIDIFISYSALANSILTIIYISIKGISYALSTFVDFYLGVFSIRAVALYYKDRKGIT", "values": [{"measurement": "protein production", "value": "failed"}]}
